How the values were obtained:
Assay in all cases: cell-based or functional assay
ACK1(h) (human) = ACK1(h) (human) (UniProt Q07912)
KDR(h) (human) = KDR(h) (human) (UniProt P35968)
PKCµ(h) (human) = biological target: T1, PKCµ(h) (human) (UniProt Q15139)
T1 sequence (looked up): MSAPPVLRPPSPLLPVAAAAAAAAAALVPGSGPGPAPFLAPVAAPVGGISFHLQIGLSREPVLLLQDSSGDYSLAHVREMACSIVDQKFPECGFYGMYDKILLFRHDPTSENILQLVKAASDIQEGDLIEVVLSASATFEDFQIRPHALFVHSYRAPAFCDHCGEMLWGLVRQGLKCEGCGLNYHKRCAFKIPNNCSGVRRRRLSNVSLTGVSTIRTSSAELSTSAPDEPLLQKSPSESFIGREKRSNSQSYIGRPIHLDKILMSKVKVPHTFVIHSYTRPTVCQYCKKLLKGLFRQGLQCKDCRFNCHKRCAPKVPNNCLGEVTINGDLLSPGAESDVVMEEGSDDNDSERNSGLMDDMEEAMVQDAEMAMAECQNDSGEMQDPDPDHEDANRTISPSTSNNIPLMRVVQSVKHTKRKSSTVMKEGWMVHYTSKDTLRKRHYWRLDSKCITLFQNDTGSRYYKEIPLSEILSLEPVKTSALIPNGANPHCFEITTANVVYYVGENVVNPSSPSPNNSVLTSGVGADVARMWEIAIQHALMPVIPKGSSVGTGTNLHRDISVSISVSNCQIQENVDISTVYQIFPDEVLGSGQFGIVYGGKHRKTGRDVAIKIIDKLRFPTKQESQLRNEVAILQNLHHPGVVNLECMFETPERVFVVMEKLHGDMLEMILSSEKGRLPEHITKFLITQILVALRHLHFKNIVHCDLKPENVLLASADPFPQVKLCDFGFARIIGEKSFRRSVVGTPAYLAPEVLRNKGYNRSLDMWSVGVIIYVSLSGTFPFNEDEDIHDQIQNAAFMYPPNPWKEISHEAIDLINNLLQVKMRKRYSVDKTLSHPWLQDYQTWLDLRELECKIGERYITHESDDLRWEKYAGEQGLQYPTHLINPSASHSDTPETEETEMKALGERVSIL

Fms(h) (human) = biological target: T2, Fms(h) (human) (UniProt P07333)
T2 sequence (looked up): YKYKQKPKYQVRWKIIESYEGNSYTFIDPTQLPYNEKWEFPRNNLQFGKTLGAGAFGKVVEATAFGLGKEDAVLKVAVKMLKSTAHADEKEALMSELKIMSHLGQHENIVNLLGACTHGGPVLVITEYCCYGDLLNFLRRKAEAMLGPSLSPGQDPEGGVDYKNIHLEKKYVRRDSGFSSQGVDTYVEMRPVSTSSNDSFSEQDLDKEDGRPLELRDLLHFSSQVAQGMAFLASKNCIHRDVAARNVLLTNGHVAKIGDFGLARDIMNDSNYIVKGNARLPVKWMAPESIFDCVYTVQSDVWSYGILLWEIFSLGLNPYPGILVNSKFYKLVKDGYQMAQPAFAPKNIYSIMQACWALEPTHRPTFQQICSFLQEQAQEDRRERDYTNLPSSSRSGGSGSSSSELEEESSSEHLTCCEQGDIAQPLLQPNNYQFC

Ron(h) (human) = Ron(h) (human) (UniProt Q04912)
Chain of Ron(h) (human) (Q04912 983-1400 limits assumed): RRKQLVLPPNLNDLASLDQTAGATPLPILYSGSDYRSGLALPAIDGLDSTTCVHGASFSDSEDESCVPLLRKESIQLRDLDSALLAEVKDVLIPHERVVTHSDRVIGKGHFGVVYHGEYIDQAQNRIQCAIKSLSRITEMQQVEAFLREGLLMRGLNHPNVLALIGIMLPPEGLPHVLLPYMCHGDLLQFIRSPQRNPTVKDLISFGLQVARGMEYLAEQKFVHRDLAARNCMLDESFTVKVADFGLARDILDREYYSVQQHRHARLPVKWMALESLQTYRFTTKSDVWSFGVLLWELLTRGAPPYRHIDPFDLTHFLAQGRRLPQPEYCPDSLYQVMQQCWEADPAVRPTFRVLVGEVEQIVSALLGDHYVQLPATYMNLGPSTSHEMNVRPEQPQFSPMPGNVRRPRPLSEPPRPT

GCK(h) (human) = biological target: T3, GCK(h) (human) (UniProt Q12851)
T3 sequence (looked up): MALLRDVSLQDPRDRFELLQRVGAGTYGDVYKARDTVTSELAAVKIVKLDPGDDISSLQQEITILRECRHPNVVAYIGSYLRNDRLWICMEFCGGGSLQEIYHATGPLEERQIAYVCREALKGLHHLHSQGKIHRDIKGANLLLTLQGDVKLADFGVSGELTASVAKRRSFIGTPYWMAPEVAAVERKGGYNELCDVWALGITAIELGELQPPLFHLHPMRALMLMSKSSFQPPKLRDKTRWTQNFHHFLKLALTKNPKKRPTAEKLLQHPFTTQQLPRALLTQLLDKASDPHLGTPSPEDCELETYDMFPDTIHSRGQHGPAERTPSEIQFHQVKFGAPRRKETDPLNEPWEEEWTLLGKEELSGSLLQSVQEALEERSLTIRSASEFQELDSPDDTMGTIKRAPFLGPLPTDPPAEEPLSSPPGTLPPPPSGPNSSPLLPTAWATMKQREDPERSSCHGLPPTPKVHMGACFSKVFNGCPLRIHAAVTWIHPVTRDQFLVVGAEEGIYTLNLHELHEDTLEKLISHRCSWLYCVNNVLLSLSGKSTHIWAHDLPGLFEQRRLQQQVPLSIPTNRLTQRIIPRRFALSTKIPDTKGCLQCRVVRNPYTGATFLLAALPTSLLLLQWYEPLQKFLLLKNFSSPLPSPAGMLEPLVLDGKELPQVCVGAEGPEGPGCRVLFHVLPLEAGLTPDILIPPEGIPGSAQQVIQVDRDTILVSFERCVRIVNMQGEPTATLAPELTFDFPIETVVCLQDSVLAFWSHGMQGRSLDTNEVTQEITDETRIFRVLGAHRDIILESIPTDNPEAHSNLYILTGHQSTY

NEK3(h) (human) = biological target: T4, NEK3(h) (human) (UniProt P51956)
T4 sequence (looked up): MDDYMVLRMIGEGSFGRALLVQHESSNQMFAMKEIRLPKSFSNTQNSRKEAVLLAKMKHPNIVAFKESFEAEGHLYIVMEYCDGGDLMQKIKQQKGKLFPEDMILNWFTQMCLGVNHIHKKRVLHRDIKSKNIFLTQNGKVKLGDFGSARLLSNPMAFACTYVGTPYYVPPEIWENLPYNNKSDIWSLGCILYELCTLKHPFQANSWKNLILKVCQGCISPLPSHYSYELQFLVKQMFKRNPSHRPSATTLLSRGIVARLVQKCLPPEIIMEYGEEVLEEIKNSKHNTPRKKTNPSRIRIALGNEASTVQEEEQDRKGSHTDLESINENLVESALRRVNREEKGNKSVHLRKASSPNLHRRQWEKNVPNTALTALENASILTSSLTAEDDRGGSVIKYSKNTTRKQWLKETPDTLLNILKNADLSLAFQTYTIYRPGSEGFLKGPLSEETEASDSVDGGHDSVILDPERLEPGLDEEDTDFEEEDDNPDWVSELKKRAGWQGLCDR

CHK2(h) (human) = CHK2(h) (human) (UniProt O96017)
Chain of CHK2(h) (human) (O96017 5-543 limits assumed): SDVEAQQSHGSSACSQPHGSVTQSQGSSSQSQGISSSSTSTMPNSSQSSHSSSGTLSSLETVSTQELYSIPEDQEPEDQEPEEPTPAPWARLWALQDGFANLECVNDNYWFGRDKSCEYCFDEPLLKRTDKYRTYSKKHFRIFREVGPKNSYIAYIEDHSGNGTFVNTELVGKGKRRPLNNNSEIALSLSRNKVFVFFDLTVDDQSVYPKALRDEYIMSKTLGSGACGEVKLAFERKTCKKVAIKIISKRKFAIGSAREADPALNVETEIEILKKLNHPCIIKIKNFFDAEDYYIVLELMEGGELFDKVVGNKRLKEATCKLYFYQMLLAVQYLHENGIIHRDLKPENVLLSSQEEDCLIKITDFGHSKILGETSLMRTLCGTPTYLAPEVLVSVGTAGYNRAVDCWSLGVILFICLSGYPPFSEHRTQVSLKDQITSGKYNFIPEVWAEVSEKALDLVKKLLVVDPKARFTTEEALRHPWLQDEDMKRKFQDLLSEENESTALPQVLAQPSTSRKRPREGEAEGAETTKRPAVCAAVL

PKCε(h) (human) = PKCε(h) (human) (UniProt Q02156)
Chain of PKCε(h) (human) (Q02156 whole entry): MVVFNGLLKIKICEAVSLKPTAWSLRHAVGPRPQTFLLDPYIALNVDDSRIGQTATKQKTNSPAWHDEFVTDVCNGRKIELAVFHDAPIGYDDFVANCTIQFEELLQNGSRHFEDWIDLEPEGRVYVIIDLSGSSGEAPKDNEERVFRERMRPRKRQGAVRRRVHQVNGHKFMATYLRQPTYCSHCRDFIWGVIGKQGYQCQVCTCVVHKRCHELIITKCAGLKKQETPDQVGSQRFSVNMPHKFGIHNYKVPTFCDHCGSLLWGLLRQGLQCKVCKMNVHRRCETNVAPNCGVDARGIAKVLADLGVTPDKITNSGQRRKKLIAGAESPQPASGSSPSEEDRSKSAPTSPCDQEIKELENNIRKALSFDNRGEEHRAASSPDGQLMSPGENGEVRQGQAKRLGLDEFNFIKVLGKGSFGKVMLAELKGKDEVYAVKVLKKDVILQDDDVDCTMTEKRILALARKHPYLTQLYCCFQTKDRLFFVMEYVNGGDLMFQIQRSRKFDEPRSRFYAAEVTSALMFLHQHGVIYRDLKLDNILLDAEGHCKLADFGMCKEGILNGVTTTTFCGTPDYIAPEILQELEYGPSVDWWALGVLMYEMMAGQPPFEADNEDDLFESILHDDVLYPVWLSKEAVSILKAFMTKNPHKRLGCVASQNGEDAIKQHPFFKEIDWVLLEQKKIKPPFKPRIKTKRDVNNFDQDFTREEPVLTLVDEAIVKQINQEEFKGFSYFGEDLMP

Fes(h) (human) = Fes(h) (human) (UniProt P07332)
Chain of Fes(h) (human) (P07332 whole entry): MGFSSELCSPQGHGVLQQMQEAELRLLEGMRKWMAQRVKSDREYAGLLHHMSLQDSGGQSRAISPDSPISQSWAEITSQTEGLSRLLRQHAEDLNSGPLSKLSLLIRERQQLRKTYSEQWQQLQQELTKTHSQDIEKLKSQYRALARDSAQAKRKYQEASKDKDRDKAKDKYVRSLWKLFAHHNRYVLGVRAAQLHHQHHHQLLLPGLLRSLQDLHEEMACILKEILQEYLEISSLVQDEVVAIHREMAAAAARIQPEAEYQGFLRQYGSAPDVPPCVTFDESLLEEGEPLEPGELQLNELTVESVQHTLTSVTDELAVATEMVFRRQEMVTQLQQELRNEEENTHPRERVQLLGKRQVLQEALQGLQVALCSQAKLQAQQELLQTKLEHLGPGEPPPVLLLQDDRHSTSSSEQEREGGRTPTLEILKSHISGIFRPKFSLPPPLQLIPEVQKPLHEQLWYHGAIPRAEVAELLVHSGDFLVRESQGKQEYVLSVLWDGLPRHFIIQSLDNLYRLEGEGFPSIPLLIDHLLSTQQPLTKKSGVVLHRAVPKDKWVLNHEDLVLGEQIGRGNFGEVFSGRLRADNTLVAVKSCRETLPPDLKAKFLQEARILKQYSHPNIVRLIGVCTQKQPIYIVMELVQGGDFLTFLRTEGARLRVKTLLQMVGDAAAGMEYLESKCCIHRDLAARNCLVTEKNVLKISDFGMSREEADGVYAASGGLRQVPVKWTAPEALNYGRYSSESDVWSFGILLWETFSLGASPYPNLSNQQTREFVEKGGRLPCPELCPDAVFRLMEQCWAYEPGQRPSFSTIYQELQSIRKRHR

EphA4(h) (human) = EphA4(h) (human) (UniProt P54764)
Chain of EphA4(h) (human) (P54764 570-986 limits assumed): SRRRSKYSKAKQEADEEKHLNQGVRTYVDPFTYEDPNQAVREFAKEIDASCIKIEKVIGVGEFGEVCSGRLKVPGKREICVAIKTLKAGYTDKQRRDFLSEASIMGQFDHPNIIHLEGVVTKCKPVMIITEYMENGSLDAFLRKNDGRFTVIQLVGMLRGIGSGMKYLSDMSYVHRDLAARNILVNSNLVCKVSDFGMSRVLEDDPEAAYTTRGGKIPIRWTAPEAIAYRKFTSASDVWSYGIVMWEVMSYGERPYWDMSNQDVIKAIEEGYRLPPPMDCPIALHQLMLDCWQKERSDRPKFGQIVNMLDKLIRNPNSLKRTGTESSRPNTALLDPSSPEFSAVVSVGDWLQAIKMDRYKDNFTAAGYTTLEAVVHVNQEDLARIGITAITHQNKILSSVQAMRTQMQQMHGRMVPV

CDK2/cyclinE(h) (human) = CDK2/cyclinE(h) (human) (UniProt P24941)

Chain of KDR(h) (human) (P35968 790-1356 limits assumed): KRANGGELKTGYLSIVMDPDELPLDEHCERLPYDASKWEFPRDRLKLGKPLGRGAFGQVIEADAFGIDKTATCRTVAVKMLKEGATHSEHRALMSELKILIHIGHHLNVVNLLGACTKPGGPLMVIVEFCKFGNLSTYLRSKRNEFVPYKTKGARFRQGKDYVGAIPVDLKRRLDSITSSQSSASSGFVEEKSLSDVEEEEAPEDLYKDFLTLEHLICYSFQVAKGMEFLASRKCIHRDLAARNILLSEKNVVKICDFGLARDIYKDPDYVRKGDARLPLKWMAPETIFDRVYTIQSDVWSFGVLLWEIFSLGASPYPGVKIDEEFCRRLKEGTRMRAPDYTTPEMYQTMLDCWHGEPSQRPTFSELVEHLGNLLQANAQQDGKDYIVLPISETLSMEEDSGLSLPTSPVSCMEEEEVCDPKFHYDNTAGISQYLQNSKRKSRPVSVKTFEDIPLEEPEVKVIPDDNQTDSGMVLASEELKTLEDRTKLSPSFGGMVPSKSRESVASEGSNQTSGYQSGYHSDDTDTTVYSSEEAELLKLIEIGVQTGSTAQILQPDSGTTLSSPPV
Chain of ACK1(h) (human) (Q07912 110-476 limits assumed): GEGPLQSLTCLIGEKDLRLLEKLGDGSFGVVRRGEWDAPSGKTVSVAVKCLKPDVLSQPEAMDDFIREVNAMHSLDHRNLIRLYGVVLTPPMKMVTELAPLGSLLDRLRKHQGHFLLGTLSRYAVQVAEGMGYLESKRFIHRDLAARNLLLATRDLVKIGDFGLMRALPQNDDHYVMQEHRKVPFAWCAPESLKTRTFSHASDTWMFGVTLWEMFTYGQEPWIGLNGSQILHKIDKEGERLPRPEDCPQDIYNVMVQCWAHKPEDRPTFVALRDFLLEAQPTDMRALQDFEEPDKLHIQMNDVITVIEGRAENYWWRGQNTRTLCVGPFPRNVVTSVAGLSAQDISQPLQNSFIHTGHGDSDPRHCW

- % activity, 100 µM (ACK1(h) (human)): 64%
- % activity, 100 µM (KDR(h) (human)): 15%
- % activity, 100 µM (PKCµ(h) (human)): 10%
- % activity, 100 µM (Fms(h) (human)): 14%
- % activity, 100 µM (Ron(h) (human)): 46%
- % activity, 100 µM (GCK(h) (human)): 30%
- % activity, 100 µM (NEK3(h) (human)): 20%
- % activity, 100 µM (CHK2(h) (human)): 13%
- % activity, 100 µM (PKCε(h) (human)): 23%
- % activity, 100 µM (Fes(h) (human)): 23%
- % activity, 100 µM (EphA4(h) (human)): 48%
- % activity, 100 µM (CDK2/cyclinE(h) (human)): 19%
Substance: MMI-0500 (peptide)

From patent US20140072613A1, “Compositions and Methods for Treating Cutaneous Scarring” (priority 2012, published 2014)
